The values that follow are results of earlier work, collected in publication PMC8136485, “Were Ancestral Proteins Less Specific?” (Molecular Biology and Evolution, 2021).

The series has as its target NCX1 peptide (Homo sapiens) (UniProt P32418). The settings on record: cited from earlier work.

Chain of NCX1 peptide (Homo sapiens) (P32418 36-973): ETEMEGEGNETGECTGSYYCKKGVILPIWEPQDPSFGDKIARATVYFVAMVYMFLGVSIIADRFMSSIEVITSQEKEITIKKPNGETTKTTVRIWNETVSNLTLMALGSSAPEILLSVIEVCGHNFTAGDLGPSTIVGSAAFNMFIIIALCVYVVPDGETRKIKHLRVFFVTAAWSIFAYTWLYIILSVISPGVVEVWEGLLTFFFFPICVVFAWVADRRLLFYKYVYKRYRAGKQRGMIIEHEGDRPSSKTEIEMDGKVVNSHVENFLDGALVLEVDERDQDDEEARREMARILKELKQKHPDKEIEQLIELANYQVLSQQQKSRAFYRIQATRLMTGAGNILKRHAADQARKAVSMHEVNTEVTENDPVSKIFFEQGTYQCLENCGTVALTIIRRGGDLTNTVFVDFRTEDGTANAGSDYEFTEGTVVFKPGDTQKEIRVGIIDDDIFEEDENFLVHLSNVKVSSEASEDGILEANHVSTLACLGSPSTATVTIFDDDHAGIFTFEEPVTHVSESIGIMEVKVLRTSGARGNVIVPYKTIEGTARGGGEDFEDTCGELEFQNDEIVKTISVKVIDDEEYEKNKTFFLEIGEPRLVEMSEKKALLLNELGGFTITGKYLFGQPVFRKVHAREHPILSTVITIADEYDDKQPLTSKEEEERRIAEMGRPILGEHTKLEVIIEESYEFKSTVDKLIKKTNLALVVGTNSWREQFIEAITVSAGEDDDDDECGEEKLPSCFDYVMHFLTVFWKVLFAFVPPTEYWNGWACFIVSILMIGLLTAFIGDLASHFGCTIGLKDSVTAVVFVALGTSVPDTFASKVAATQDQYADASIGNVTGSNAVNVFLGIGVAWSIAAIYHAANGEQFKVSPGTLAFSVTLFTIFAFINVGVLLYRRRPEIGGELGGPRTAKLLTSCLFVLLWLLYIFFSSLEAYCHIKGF
Chain of hA5 (S100A5) (P33763 whole entry): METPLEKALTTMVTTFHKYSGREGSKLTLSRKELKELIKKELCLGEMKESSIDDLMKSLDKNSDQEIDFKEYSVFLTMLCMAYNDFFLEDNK

For hA5 (S100A5) (from UniProt P33763), the dissociation constant Kd was 18 µM.
